Assay results reported in the nanobody polyreactivity screen of Harvey et al. (2022).

Assay: yeast display, Sf9 membrane polyspecificity reagent, FACS + sequencing; frameworks hold sequencing errors
In short: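 Using colony PCR, genes from sorted yeast display clones were amplified, then sequenced on MiSeq at 2 × 250 and filtered by CDR length. The clones had been stained with 10% biotinylated, detergent-solubilized Sf9 membrane reagent for 1 hour at 4 °C and sorted by FACS into low and high (top ~1%) gates on anti-HA and streptavidin fluorescence. Polyreactivity labels come from the gate of origin.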

Row | Sequence | polyreactivity (PSR sort gate)
1 | QVQLVESGGGLVQAGGSLRLSCAASGRTFGPYAMGWYRQAPGKERELVAAITSSGGSTYYADSVKGRFTISRDNAKNTVYLQMNSLKPEDTAVYYCNKLYWRQSQDYDYWGQGTQVTVSS | low polyreactivity
2 | QVQLVESGGGLVQAGGSLRLSCAASGITLHYYAMGWYRQAPGKERELVATISRSGGSTYYADSVKGRFTISRDNAKNTVYLQMNSLKPEDTAVYYCAARSWGGYDSRGYWGQGTQVTVSS | high polyreactivity
3 | QVQLVESGGGLVQAGGSLRLSCAASGRTFDYYAMGWYRPAPGKERELVAAIRTSGGSTNYADSVKGRFTISRDNAQNTVYLLMNSLKPEDTAVYYCAARDRPGAYYYGGQGTQVTVSS | high polyreactivity
4 | QVQLVESGGGLVQAGGSLRLSCAASGRIFSVYTMGWYRQAPGKERELVATISSGGRTNYADSVKGRFTISRDNAKNTVYLQLNSLKPEDTAVYYCNADYFGQESWWMDYWGQGTQVTVSS | low polyreactivity
5 | QVQLVESGGGLVQAGGSLRLSCAASGRIFYYYAMGWYRQAPGKERELVAAISTDVGGTFYAESVKGRFTISRANAKNTVYLQMNSLKPEDTAVDYCAVEYLWHGDEHDYWGQGTQVTVSS | high polyreactivity
6 | QVQLVESGGGLVQAGGSLRLSCAASGFTFEYYAMGWYRQAPGKERELVAVITWNGGSTYYADSVKGRFTISRDNAKNTVYLQMNSLKPEDTAVYYCNVVPYLYNGGSHRYNYWGQGTQVTVSS | high polyreactivity
7 | QVQLVESGGGLVQAGGSLRLSCAASGSTFDDNGMGWYRKAPGKERELVAGINSAGSTYYADSVKGRFTISRDNAKNTVYLQMNSLKPEDTAVYYCARRFLLKDRTKRAYGSWGQGTQVTVSS | low polyreactivity
8 | QVQLVDSGGGLVQAGGSLRLSCAASGRTFYYNTMGWYRQAPGKERELVAAITYRGGRTYYADSVKGRFTISRDNAKNTVYLQMNSLKPEDTAVYYCAADWRGPGRTYKINKYDYWGQGTQVTVSS | high polyreactivity
9 | QVQLVESGGGLVQAGGSLRLSCAASGSTFYLNAMGWYRQAPGKERELVAAITVSGGSTYYADSVKGRFTISRDNAKNTVYLQMNSLKPEDTAVYYCARELLSPTYQRWYYYWGQGTQVTVSS | low polyreactivity
10 | QVQLVESGGGLVQAGGSLRLSCAASGITFLPYAMGWYRQAPGKERELVAAITRGGGSTYADSVKGRFTISRDNAKYTVYLQMKSLKPEDTAVYYCAKRLGRVSWYEDYDYWGQGTEVTVSS | low polyreactivity
11 | QVQLVESGGGLVQAGGSLRISCAASGIIFDRYVMGWYRQAPGKERELVATITRSVNTDYADSVKGRFTISRDNAKNTVYLQMNSLKPEDTAVYYCAARKYYYFPVAYDYWGQGTQVTVSS | high polyreactivity
12 | QVQLVESGGGLVQAGGSLRLSCAASGGTFPPNTMGWSRQAPGKEREFVAASTWRGSSTYYADSVKGRFTISRDKAKNTVYLQMNSLKPEDTAVYYCAARRAYERMGYWGQGTQVTVSS | high polyreactivity
13 | QVQLVESGGGLVQAGGSLRLSCAASGSTFRVYDMGWYRQAPGKERELVASLSYSVGSTYYADSVKGRFTISRDNAKNTVYLQMNSLKPEDTAVYYCAARPSYQPSSLARYDYWGQGTQVTVSS | low polyreactivity
14 | QGQLVESGGGLVQAGGSLRLSCAASVRTSVINAMGWYRQAPGKERELVAAITKRGGSTYYADSVKGRFTISRDIAKNTVYLQMNSLKPEDTEVYYCAKYPIYIQYDSWGQGTQVTVSS | high polyreactivity
15 | QVQLVESGGGLVQAGGSLRLSCAASGSIFTHNDMGWYRQAPGQERELVAAISSGGSTNYADSVTGRFTISRDNAKNTVYLQMNSLIPVETAVYYCAKSIDGWYWRRRRYDYWGQGTQVTVSS | low polyreactivity
16 | QVQVVESGGGLVQAGGSLRLSSAASGSTFNYNAMGWYRQAPGKERELVAAITNGGSTSYADSVKGRFTISRDNAKNTVYLQMNSLKPEDTAVYYCNADEDLRGYDYWGQGTQVTVSS | low polyreactivity
17 | QVQLVESGGGLVQAGGSLRLSCAASGNIFLYYAMGWYRQAPGKERELVADIDSSGASTYYADSVKGRFTISRDNAKNTVYLQMNSLKPEDTAVYYGAKDSNRYSYYSPYDSWGQGTQVTVSS | low polyreactivity
